For 1 substance, stoichiometry N results are on record in paper PMC12697964.

For this test, the target named is N-terminal region deleted seYdjB-like protein (amino acid from 35 to 162) (Salmonella enterica). The test is described as follows: SEC-MALS; Superdex 75 10/300 GL, SEC buffer (20 mM Tris-HCl pH 8.0, 150 mM NaCl), 0.6 mL/min; three-angle light scattering and refractive index detectors; BSA as reference. A general note: Size exclusion chromatography separates by hydrodynamic size, large species first.

With “N-terminal region deleted seYdjB-like protein (amino acid from 35 to 162) (domain or fragment)”, the stoichiometry N – broadly, a count of units in the complex or per binding partner – is 2.
